For test [1], the system named is OV26, a NET ovarian tumor. Kind of test: ADC cytotoxicity in NTX tumor cells in vitro. The format is cell-based, human. The following applies: compared to control msIgG1. As to the method:
(§1) NTX tumors were dissociated into a single cell suspension and plated on Primaria™ plates (BD Biosciences) in growth factor supplemented serum free media as is known in the art. After culturing the cells for one day at 37° C./5% CO2/5% O2, they were treated with a control (IgG1, IgG2a or IgG2b) or a murine SEZ6 modulator and Fab-saporin as described in Example 14. After seven days, the modulator-mediated saporin cytotoxicity was assessed by quantifying the remaining number of live cells using Cell Titer Glo.
(§2) Mouse lineage-depleted NTX tumor cells were exposed to anti-SEZ6 ADCs or a mouse isotype control (msIgG1) using the same method as described in Example 15, except that Fab-saporin was not added.

A further test deals with LU64, a SCLC tumor. Put plainly: ADC cytotoxicity in NTX tumor cells in vitro. The format is cell-based, human. To be noted: compared to control msIgG1. The procedure:
as §1, §2

For a further test, the target named is T1, SEZ6 ECD (Homo sapiens, UniProt Q53EL9).
T1 construct: SEZ6 extracellular domain (amino acids 1-904); expressed in transfected cells; host or cells: yeast (surface display, Cochran et al. protocol)
Put plainly: Fine epitope mapping (phage display peptide library or yeast-displayed SEZ6 ECD mutants). To be noted: epitope conformational (discontinuous) or linear. The format is binding.

A further test concerns the target T2, SEZ6 (Homo sapiens, UniProt Q53EL9).
T2 construct: produce a cDNA fragment encoding the mature human SEZ6 protein; IgK signal peptide (N); T2A peptide (residue left after ribosomal skipping; GFP is a separate protein) (C); expressed in transfected cells; host or cells: HEK-293T (lentiviral transduction, pCDH-EF1-MCS-T2A-GFP)
Kind of test: Immunohistochemistry validation on FFPE cell pellets. The format is binding. The following applies: FFPE sections. As to the method:
Immunohistochemistry (IHC) was performed on PDX tumors to confirm that SEZ6 is expressed on the surface of certain PDX tumors; and in order to determine the location of the SEZ6 protein in the tumor architecture. IHC was performed on formalin fixed paraffin embedded (FFPE) tissue sections using an indirect detection method which included murine monoclonal primary antibody against SEZ6 (SC17.140), mouse specific biotin conjugated secondary antibodies, avidin/biotin complex coupled with horse radish peroxidase, and DAB detection (Nakene P K 1968; 16:557-60). […] Specificity was further confirmed by competing signal with a 5 molar excess of purified recombinant SEZ6 on HEK-293T cells overexpressing human SEZ6 and NTX tumors that were shown by IHC to express SEZ6 (data not shown).

Another test relates to LU100, a SCLC tumor. Kind of test: Fab-saporin cytotoxicity in NTX tumor cells. The format is cell-based, human. To be noted: 50 and 500 pM antibody with Fab-saporin, seven days. The procedure: (§3) To corroborate the results of Example 14 and determine whether SEZ6 modulators can mediate toxin internalization and cell killing of human tumor cells (as opposed to engineered cells), mouse lineage-depleted NTX cells were plated and subsequently exposed to anti-SEZ6 antibodies and Fab-saporin.
as §1

For the next test, the system named is rat SEZ6. Kind of test: Flow cytometry cross reactivity, RIN-m5F cells. The format is binding. To be noted: 5 μg/mL antibody. The procedure: (§4) In this regard flow cytometry was performed using a FACSCanto II as per the manufacturer's instructions in order to confirm that selected SC17 antibody modulators can immunospecifically associate with human SEZ6 and to determine whether the same modulators cross-react with cynomolgus, rat and/or murine SEZ6 in addition to SEZ6L and SEZ6L2. More particularly modulators were tested for cross reactivity to murine SEZ6 and rat SEZ6 by flow cytometry against Neuro2a (ATCC Cat # CCL131), and RIN-m5F (ATCC cat # CRL-11605) cell lines which express mouse SEZ6 and rat SEZ6, respectively. For examining cross reactivity to cynomolgus SEZ6, yeast displaying the extracellular domain of cynomolgus SEZ6 (Boder et al, 1997) were used for flow cytometry analysis.
(§5) Briefly 1×10^5 cells per well of Neuro2a, RIN-5mF, or yeast displaying cynomolgus SEZ6 cells were incubated for 30 minutes with 50 μL PBS (2% FCS) buffer with 5 μg/mL antibody. Cells were washed twice with the same buffer and then incubated with 50 μL per sample DyLight 649 labeled goat-anti-mouse IgG, Fc fragment specific secondary diluted 1:200 in PBS buffer. After incubating for 15 minutes cells were washed twice with the PBS buffer and re-suspended in the same with DAPI for flow cytometry analysis of Neuro2a and Rin-m5F or buffer without DAPI for flow cytometric analysis of yeast cells with cSEZ6.

For another test, the target named is T3, SEZ6L2 (Homo sapiens, UniProt Q6UXD5, INS830AYEELLDNRKLEV).
T3 construct: IgK signal peptide (N, cleaved yes); made in house; host or cells: HEK-293T or CHO-S
Put plainly: ELISA cross reactivity to family member SEZ6L2. The format is binding. Also on record: key to binds SEZ6 family member SEZ6L2 (dagger): *: antibodies that bind SEZ6 family members SEZ6L and SEZ6L2 are designated with an asterisk and/or a dagger, respectively; †: antibodies that bind SEZ6 family members SEZ6L and SEZ6L2 are designated with an asterisk and/or a dagger, respectively. The following applies: for cross reactivity with SEZ6L2: ELISA, antibody 1 μg/mL; for binds SEZ6 family member SEZ6L2 (dagger): mark in Table 5. As to the method:
To determine cross reactivity to family member proteins, SEZ6L and SEZ6L2, an ELISA-based assay was used. Plates were coated with SEZ6, SEZ6L, or SEZ6L2 proteins at 0.2 μg/mL in PBS overnight. After washing with PBS containing 0.05% (v/v) Tween 20 (PBST), the wells were blocked with 2% (w/v) BSA in PBS (PBSA), 100 μL/well for 1 hour at room temperature. Antibody was then added at 1 μg/mL in 100 μL PBSA for 1 hour at room temperature. After washing with PBST, 100 μL/well HRP-labeled goat anti-mouse IgG diluted 1:2,000 in PBSA for 1 hour at room temperature. The plates were washed and 100 μL/well of the TMB substrate solution (Thermo Scientific 34028) was added for 15 minutes at room temperature. After developing, an equal volume of 2M H2SO4 was added to stop substrate development and analyzed by spectrophotometer at OD 450. […] As discussed above, such pan-SEZ6 antibodies are compatible with the teachings herein and may be used in conjunction with the disclosed methods.
On the technique in general: In an ELISA, binding on a coated surface is turned into a signal by an enzyme label.

The target of a further test is T4, mouse SEZ6 (Mus musculus, UniProt Q7TSK2).
T4 construct: Neuro2a (ATCC Cat # CCL131), and RIN-m5F (ATCC cat # CRL-11605) cell lines which express mouse SEZ6 and rat SEZ6; host or cells: Neuro2a
Kind of test: Flow cytometry cross reactivity, Neuro2a cells. The format is binding. The following applies: 5 μg/mL antibody. The procedure: as §4, §5
In general terms: A flow cytometer gives signals particle by particle.

Another test has as its system LU37, a NSCLC tumor. Put plainly: Fab-saporin cytotoxicity in NTX tumor cells. The format is cell-based, human. The following applies: antibody with Fab-saporin, seven days. The procedure:
as §3, §1

The test system of a further test is LU80, a SCLC tumor. Put plainly: Fab-saporin cytotoxicity in NTX tumor cells. The format is cell-based, human. The following applies: antibody with Fab-saporin, seven days. The procedure: as §3, §1

T3 sequence (Q6UXD5 with tags, fused parts or gaps with the stated changes): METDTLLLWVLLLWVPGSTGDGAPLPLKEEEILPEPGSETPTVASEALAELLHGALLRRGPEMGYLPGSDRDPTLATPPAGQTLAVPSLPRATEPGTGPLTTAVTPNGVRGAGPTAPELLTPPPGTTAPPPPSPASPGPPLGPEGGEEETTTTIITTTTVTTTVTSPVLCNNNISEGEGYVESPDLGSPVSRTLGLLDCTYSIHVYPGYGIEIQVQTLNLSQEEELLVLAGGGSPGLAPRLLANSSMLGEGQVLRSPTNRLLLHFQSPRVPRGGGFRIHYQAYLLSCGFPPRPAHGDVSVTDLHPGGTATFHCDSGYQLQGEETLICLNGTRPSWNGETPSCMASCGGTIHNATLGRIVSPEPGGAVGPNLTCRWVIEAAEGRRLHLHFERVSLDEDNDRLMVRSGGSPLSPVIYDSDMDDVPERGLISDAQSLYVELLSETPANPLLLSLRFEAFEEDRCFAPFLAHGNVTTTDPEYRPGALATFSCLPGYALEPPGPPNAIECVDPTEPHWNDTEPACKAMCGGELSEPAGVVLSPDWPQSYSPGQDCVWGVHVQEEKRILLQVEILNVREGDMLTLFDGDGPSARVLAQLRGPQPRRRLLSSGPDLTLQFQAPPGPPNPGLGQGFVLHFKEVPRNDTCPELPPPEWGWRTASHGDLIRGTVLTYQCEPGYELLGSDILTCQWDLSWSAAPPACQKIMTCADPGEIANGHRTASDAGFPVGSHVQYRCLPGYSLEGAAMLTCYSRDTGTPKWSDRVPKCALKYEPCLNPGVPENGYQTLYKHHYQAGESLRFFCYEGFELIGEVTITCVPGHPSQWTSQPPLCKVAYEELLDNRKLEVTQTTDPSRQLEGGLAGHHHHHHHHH
Sequence of rat SEZ6 (as listed by the source): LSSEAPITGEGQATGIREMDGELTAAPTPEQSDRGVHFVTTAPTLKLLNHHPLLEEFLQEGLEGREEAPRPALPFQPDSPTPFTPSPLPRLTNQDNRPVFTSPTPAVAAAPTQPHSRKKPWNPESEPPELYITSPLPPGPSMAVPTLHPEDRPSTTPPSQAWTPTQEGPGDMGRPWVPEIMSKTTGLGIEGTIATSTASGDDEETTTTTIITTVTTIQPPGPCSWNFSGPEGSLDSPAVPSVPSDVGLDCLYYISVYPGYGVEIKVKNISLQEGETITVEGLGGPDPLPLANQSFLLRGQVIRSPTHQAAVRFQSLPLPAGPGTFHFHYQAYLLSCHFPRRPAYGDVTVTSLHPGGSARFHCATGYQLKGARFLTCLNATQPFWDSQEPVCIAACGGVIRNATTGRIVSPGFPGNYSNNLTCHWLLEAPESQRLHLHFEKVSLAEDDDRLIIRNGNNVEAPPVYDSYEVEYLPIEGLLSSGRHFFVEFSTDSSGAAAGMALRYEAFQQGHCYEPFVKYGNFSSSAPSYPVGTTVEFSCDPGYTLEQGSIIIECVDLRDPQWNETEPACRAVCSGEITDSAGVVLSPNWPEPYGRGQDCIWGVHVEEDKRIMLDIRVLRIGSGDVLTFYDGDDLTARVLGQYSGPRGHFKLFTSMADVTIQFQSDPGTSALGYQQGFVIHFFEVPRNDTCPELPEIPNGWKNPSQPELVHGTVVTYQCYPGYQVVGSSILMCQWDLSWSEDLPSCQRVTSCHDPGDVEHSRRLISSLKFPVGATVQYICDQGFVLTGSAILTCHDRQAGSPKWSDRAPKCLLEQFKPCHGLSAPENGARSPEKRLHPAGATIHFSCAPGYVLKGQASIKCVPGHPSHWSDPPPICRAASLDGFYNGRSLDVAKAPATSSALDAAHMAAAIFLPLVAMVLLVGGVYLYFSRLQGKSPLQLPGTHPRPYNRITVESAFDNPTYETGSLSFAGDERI
T4 sequence (Q7TSK2 20-991): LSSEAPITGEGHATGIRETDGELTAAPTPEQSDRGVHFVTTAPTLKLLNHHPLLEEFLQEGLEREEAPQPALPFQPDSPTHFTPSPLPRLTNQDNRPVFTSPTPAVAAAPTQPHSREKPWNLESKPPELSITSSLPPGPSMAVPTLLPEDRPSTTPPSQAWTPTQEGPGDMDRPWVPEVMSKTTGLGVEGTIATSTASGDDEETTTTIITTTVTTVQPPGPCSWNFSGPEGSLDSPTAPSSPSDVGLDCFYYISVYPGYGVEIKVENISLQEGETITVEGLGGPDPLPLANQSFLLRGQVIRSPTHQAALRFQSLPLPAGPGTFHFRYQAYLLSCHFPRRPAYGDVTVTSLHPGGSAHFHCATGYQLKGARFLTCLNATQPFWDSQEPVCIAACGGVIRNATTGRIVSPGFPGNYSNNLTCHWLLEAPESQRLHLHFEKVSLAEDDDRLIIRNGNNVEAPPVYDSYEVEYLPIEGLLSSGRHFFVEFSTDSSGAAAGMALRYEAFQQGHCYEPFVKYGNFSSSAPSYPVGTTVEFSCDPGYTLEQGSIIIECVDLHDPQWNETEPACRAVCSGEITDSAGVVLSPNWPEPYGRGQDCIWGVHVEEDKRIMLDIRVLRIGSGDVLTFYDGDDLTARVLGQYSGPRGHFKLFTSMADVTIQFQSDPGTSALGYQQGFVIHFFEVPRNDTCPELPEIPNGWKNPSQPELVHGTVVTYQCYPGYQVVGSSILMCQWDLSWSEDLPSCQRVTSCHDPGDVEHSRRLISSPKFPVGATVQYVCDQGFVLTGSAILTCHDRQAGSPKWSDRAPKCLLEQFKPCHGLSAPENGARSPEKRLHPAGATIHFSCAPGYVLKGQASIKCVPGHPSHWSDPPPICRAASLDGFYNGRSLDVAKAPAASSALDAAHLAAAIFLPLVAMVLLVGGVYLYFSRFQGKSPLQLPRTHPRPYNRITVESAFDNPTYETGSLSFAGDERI

B1: SC17.28-ADC2: SC17.28 antibody conjugated to PBD dimer cytotoxic agent (and linker) ADC2 (conjugate)
VL: DILLTQSPAILSVSPGEGVSFSCRASQSIGTSIHWYQQRTNGSPRLLIKYASESISGIPSRFSGSGSGTDFTLRINSLESEDIADYYCQQSNSWPLTFGAGTKLELK
VH: QVHLPQSRPELVKPGASVKISCKASGYGFTRSYIHWVKQRPGQGLEWIGYISSGSGGTTYNQKFKGKASLTADNPSSTAYMHLSSLTSEDSAIYFCARGGVRYFDVWGAGTTVTVSS
As for B1, the “percent viable cells, OV26” value in test [1] is recorded as “increased reduction in percent viable cells”. Besides, the “percent viable cells, LU64” value in the test on LU64, a SCLC tumor is given as “increased reduction in percent viable cells”.

B2: SC17.34-ADC2: SC17.34 antibody conjugated to PBD dimer cytotoxic agent (and linker) ADC2 (conjugate)
VL: DIKMTQSPSSMYASLGERVTITCKASQDINSYLSWFQQKPGKSPKTLIYRANRLVDGVPSRFSGSGSGQDYSLTISSLEYEDMGIYYCLQYDEFPPTFGGGTKLEIK
VH: EVQLQQSGPELVKPGSSVKISCKASGYTFTDYNMDWVKQSHGKRLEWIGYIYPDNGGAGYNQKFKGKATLTVDKSSSTAYMELRSLTSEDSAVYYCSRSITTAWFAYWGQGTLVTVSA
On to B2, for which the “percent viable cells, OV26” value in test [1] was “increased reduction in percent viable cells”. Also, in the test on LU64, a SCLC tumor, the “percent viable cells, LU64” value is given as “increased reduction in percent viable cells”.

B3: SC17.140: murine anti-SEZ6 antibody (antibody, V domains shown)
VH: EVQLQQSGPELMKPGASVKMSCKASGYTFTDYNMHWVKQNQGKSLEWIGEINPNTGGTGYNQKFKGKATLTVDKFSSTAFIELRSLTSEDSAIYYCTRGGYDHYWYFDVWGAGTTVTVSS
VL: QIVLTQSPAIMSASPGEKVTMTCSASSSVSYMHWYQQKSGTSPKRWIYDTSKLASGVPARFSGSGSGTSYSLTISSMEAEDAATYYCQQWSSTPPTFGSGTKLEIK
modifications: Murine SC17.140 VH; Murine SC17.140 VL
notes: murine anti-SEZ6 antibody
For the molecule B3, in the test with SEZ6 ECD, the Discontinuous entry is “Yes”. For the same molecule, the “IHC staining of HEK-293T cell pellets overexpressing SEZ6 compared to naïve HEK-293T cell pellets” value with SEZ6 is reported as “specific staining”.

B4: SC17.24-ADC2: SC17.24 antibody conjugated to PBD dimer cytotoxic agent (and linker) ADC2 (conjugate)
VL: DIVMSQSPSSLAVSVGEKVTMSCKSSQSLLYSSNQKSYLAWYQQKPGQSPKLLIYWASTRESGVPDRFTGSGSGTDFTLTISSVQAEDLAVYYCKQSYNLRTFGGGTKLEIK
VH: QVQLQQSDAELVKPGASVKISCKVSGYTFTDHTIHWMKQRPEQGLEWIGYIYPRDGSTKYNEEFKGKATLTADKSSSTAYMQLNSLTSEDSAVYFCARSYSNYFDYWGQGTTLTVSS
As for B4, the “percent viable cells, OV26” value in [1] is “increased reduction in percent viable cells”. The “percent viable cells, LU64” value with LU64, a SCLC tumor is “increased reduction in percent viable cells”.

B5: SC17.19: murine anti-SEZ6 antibody (antibody, V domains shown)
VH: DVQLQESGPGLVKPSQSLSVTCTVTGYSITSSYTWNWIRQFPGNKLEWMGYIHYSGSTNYNPSLRSRISITRDTSKNQFFLQLNSVTTEDTATYYCARSRYYYDAYGFAYWGQGTLVTVSA
VL: DIVLTQSPASLAVSLGQRAAISCKPSQSVDYDGDSYMNWYQQKPGQPPKLLIYAASNLESGIPARFSGSGSGTDFTLNIHPVEEEDAATYYCHQINDDPWTFGGGTKLK
modifications: Murine SC17.19 VH; Murine SC17.19 VL
notes: murine anti-SEZ6 antibody
Regarding B5, the “number of tumor cells, LU100” value in the test with LU100, a SCLC tumor is reported as “reduction of tumor cells”. Further, the “cross reactivity to rat SEZ6” value in the test with rat SEZ6 was “cross reactive”. In the test with SEZ6L2, the “cross reactivity with SEZ6L2” value is listed as “cross-reactive” and the “binds SEZ6 family member SEZ6L2 (dagger)” value was “SC17.SC17, SC17.19^†, SC17.93, SC17.102, SC17.121,”. Further, the “cross reactivity to murine SEZ6” value with mouse SEZ6 is recorded as “cross reactive”.

B6: SC17.6: murine anti-SEZ6 antibody; SC17.6 is duplicate of SC17.16 (antibody, V domains shown)
VH: EVQLQQSGPELMKPGASVKMSCKASGYTFTDYNMYWVKQNQGKSLEWIGEINPNNGGTAYNQKFRGKATLTVDKSSSTAYMELRSLTSEDSAVYYCARYDKGFDYWGQGTTLTVSS
VL: DIQMTQSPASLSVSVGETVTITCRASANINSNLVWYQQKQGKSPQLLVYAATNLADGVPSRFSGSGSGTQYSLKINSLQSEDFGNYYCQHFWGTPRTFGGGTKLEIK
modifications: Murine SC17.16 VH; Murine SC17.16 VL
On to B6, for which the “number of tumor cells, LU100” value in the test on LU100, a SCLC tumor is reported as “reduction of tumor cells”. In the test with LU37, a NSCLC tumor, the “number of tumor cells, LU37” value is “reduction in the number of tumor cells”. Besides, the “number of tumor cells, LU80” value in the test on LU80, a SCLC tumor is listed as “reduction in the number of tumor cells”. Further, the “cross reactivity to rat SEZ6” value in the test on rat SEZ6 is “cross reactive”. Besides, in the test with SEZ6L2, the “cross reactivity with SEZ6L2” value is recorded as “cross-reactive” and the “binds SEZ6 family member SEZ6L2 (dagger)” value is recorded as “SC17.6^†, SC17.28^†, SC17.103, SC17.109, SC17.119,”. Moreover, the “cross reactivity to murine SEZ6” value in the test with mouse SEZ6 is reported as “cross reactive”.

These data come from patent US9993566B2, “SEZ6 modulators and methods of use” (AbbVie Stemcentrx LLC, priority 2013, dated 2018).
